Data reported in patent publication US20250277054A1.

Columns and labels:
[1] = target: human PSMA on human prostate cancer cells (LNCaP, C4-2, 22Rv1) (human) (UniProt Q04609); assay: flow cytometry on 22Rv1 cells (PSMA low)
[2] = target: human PSMA on human prostate cancer cells (LNCaP, C4-2, 22Rv1) (human) (UniProt Q04609); assay: flow cytometry on C4-2 cells (PSMA high)
[3] = target: human PSMA on human prostate cancer cells (LNCaP, C4-2, 22Rv1) (human) (UniProt Q04609); assay: flow cytometry on LNCaP cells (PSMA high)
[4] = target: Mouse PSMA.ECD.His (Acro) (mouse) (UniProt O35409); assay: ELISA, coated mouse PSMA protein (His tag)
Chain of Mouse PSMA.ECD.His (Acro) (mouse) (O35409 45-752): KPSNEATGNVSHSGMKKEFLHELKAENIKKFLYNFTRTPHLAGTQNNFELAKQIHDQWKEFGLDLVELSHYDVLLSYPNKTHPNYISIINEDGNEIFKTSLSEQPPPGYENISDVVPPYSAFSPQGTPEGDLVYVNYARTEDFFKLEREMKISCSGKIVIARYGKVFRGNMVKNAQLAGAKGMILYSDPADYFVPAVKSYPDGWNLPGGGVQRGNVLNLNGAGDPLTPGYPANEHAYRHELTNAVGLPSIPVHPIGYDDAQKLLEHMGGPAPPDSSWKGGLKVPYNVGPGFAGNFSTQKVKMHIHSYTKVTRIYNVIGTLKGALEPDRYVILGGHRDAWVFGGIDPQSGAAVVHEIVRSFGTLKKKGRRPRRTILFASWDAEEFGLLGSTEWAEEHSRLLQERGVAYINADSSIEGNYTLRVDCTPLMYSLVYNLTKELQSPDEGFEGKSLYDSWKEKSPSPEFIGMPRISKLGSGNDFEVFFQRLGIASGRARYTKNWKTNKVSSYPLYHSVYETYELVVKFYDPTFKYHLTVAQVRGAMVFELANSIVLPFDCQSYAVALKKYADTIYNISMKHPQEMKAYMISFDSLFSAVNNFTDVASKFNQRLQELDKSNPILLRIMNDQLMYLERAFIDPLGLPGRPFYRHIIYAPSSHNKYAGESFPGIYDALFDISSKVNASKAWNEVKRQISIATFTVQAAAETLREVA

[5] = target: Human PSMA.ECD.His (Acro) (human) (UniProt Q04609); assay: ELISA, coated human PSMA protein (His tag)
Chain of Human PSMA.ECD.His (Acro) (human) (Q04609 44-750): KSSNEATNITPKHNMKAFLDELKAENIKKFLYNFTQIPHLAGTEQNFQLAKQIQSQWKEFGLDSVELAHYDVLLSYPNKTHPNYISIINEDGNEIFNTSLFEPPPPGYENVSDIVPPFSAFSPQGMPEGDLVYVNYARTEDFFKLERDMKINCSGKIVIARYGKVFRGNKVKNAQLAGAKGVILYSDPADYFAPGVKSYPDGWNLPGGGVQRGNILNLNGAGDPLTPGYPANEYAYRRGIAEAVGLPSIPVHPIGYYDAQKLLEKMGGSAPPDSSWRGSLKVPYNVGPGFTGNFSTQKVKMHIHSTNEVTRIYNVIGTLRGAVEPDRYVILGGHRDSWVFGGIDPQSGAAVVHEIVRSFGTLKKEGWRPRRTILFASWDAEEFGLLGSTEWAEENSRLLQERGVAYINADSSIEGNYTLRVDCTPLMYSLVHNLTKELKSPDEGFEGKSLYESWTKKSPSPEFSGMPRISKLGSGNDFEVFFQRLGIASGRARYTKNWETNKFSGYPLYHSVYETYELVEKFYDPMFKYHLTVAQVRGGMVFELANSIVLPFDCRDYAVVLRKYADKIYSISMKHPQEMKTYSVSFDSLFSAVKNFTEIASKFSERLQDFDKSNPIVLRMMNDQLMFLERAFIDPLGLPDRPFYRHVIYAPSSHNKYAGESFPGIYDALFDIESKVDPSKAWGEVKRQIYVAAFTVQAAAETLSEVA

[6] = target: full-length cynomolgus PSMA on Flp-in CHO cells (WBP3xx042-FlpinCHO.cPro1.B7) (cynomolgus); assay: flow cytometry on FlpInCHO-cyno PSMA cells
[7] = target: Cyno PSMA.ECD.His (Acro) (cynomolgus); assay: ELISA, coated cynomolgus PSMA protein (His tag)
[8] = target: Biotinylated Human PSMA/FOLH1 Protein, His, Avitag (human) (UniProt Q04609); assay: SPR (Biacore 8K), biotinylated human PSMA captured on streptavidin chip, antibody injected, single-cycle, 1:1 model
Chain of Biotinylated Human PSMA/FOLH1 Protein, His, Avitag (human) (Q04609 44-750 limits assumed): as the sequence (Q04609 44-750) above

[9] = target: human PSMA on human prostate cancer cells (LNCaP, C4-2, 22Rv1) (human) (UniProt Q04609); assay: flow cytometry on LNCaP cells
[10] = target: Human PSMA.ECD.His (Acro) (human) (UniProt Q04609); assay: ELISA, human PSMA ECD captured by anti-His antibody
[11] = target: full-length cynomolgus PSMA on Flp-in CHO cells (WBP3xx042-FlpinCHO.cPro1.B7) (cynomolgus); assay: flow cytometry on cynomolgus PSMA-expressing CHO cells
[12] = target: Cyno PSMA.ECD.His (Acro) (cynomolgus); assay: ELISA, cynomolgus PSMA ECD captured by anti-His antibody
[13] = target: Cyno PSMA.ECD.His (Acro) (cynomolgus); assay: SPR (Biacore 8K), antibody captured by anti-human IgG Fc, PSMA injected, 1:1 model
[14] = target: Human PSMA.ECD.His (Acro) (human) (UniProt Q04609); assay: as above

Chain of human PSMA on human prostate cancer cells (LNCaP, C4-2, 22Rv1) (human) (Q04609 whole entry, the tested form may be a part): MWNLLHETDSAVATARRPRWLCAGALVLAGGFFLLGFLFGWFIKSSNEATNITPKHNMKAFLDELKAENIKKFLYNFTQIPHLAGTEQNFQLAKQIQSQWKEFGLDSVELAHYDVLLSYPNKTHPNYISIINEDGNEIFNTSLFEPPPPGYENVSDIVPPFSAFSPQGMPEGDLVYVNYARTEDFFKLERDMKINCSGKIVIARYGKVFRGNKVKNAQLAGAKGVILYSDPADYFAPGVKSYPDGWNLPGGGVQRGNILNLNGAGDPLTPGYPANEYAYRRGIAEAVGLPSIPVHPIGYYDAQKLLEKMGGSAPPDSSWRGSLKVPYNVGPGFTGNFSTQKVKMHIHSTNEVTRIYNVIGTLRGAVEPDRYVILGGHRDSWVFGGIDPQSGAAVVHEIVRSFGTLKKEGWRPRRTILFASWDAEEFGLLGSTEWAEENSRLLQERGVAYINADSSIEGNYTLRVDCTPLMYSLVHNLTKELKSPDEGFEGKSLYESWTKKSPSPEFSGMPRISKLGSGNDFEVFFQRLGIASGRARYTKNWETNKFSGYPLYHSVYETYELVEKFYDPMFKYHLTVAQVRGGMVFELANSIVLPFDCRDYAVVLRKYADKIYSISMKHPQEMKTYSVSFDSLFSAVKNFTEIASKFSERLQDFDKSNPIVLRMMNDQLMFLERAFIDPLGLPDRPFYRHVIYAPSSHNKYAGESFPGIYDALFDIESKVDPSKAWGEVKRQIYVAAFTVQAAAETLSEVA

Substance	EC50 [1]	Max MFI [1]	EC50 [2]	Max MFI [2]	EC50 [3]	Max MFI [3]	Max OD450-540 [4]	Max OD450-540 [5]	Max MFI [6]	Max OD450-540 [7]	Kd [8]	Max MFI [9]	Max OD450 [10]	EC50 [11]	Max MFI [11]	EC50 [12]	Max OD450 [12]	other results
AMG 160 (BMK2) (bispecific antibody)	46.1 nM	5910 MFI	34.4 nM	34200 MFI	30.8 nM	19100 MFI	0.09 OD450-540	3.52 OD450-540	62900 MFI	3.57 OD450-540	36.7 nM							EC50 [5]: 0.22 nM; EC50 [6]: 55.8 nM; EC50 [7]: 0.48 nM
AMG 340/TNB-585 (BMK1) (bispecific antibody)	174 nM	5280 MFI	35.3 nM	34700 MFI	55.7 nM	16300 MFI	0.05 OD450-540		2870 MFI		32.3 nM							koff [8]: 0.00378 s⁻¹; kon [8]: 117000 M⁻¹ s⁻¹
isotype hIgG4 control (antibody)		372 MFI		138 MFI		181 MFI	0.09 OD450-540	0.04 OD450-540	19.9 MFI	0.04 OD450-540								

Now from value to substance, other results behind:

EC50 [1]	Max MFI [1]	EC50 [2]	Max MFI [2]	EC50 [3]	Max MFI [3]	Max OD450-540 [4]	Max OD450-540 [5]	Max MFI [6]	Max OD450-540 [7]	Kd [8]	Max MFI [9]	Max OD450 [10]	EC50 [11]	Max MFI [11]	EC50 [12]	Max OD450 [12]	Substance	other results
											3590 MFI	2.34 OD450	3.63 nM	93300 MFI	0.011 nM	2.79 OD450	J591 antibody (W3XX042-BMK1)	EC50 [9]: 0.48 nM; EC50 [10]: 0.077 nM; Kd [13]: 1.82 nM; koff [13]: 0.000192 s⁻¹; Kd [14]: 1.27 nM
											47.7 MFI	0.263 OD450	> 100 nM	34.8 MFI	> 10 nM	0.258 OD450	human IgG isotype antibody (negative control)	EC50 [4]: > 100 nM; Max OD450 [4]: 0.093 OD450
